# From the supplement of paper PMC9112550, “Optimization of the antimicrobial peptide Bac7 by deep mutational scanning” (BMC Biology, 2022)
# System: Escherichia coli TOP10
# Test: shrunken log2 fold change of peptide-encoding DNA abundance (4.5 h post-induction vs induction); higher = less antimicrobial activity (less host growth inhibition)
# Conditions: time post-induction: 4.5 h; library: site-saturation at positions 5, 18, 19, 20
# 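Also: peptides expressed intracellularly from a pBAD plasmid library in pooled LB shake-flask culture, induced with 0.3% L-arabinose, DNA abundance read by NGS, three biological replicates, DESeq2 with apeglm shrinkage.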
row,Sequence,shrunken log2 fold change
1,RRIRTRPPRLPRPRPRPACQPRP,0.0771
2,RRIRNRPPRLPRPRPRPMRYPRP,-0.154
3,RRIRQRPPRLPRPRPRPWPKPRP,0.097
4,RRIRRRPPRLPRPRPRPHEFPRP,0.0543
5,RRIRDRPPRLPRPRPRPSEQPRP,0.0598
6,RRIRMRPPRLPRPRPRPWNRPRP,-0.51
7,RRIRPRPPRLPRPRPRPHLVPRP,-0.034
8,RRIRVRPPRLPRPRPRPCNVPRP,-0.452
9,RRIRTRPPRLPRPRPRPYEKPRP,-0.657
10,RRIRYRPPRLPRPRPRPTDWPRP,-0.314
11,RRIRLRPPRLPRPRPRPYMKPRP,-0.804
12,RRIRERPPRLPRPRPRPFVKPRP,-0.0102
13,RRIRKRPPRLPRPRPRPYILPRP,-0.0873
14,RRIRTRPPRLPRPRPRPTIVPRP,-0.0242
15,RRIRYRPPRLPRPRPRPDQHPRP,-0.13
16,RRIRARPPRLPRPRPRPLPDPRP,1.07
17,RRIRRRPPRLPRPRPRPDSWPRP,0.115
18,RRIRHRPPRLPRPRPRPLKRPRP,-0.00686
19,RRIRGRPPRLPRPRPRPKLMPRP,1
20,RRIRSRPPRLPRPRPRPMGTPRP,0.194
21,RRIRGRPPRLPRPRPRPQFDPRP,0.61
22,RRIRRRPPRLPRPRPRPEEEPRP,0.855
23,RRIRTRPPRLPRPRPRPTYGPRP,-0.104
24,RRIRSRPPRLPRPRPRPKYYPRP,-0.918
25,RRIRWRPPRLPRPRPRPALAPRP,0.555

row,Sequence,shrunken log2 fold change
1,RRIRQRPPRLPRPRPRPRLPPRP,0.467
2,RRIRHRPPRLPRPRPRPARTPRP,0.19
3,RRIRGRPPRLPRPRPRPLDSPRP,0.217
4,RRIRIRPPRLPRPRPRPHSCPRP,-0.0433
5,RRIRYRPPRLPRPRPRPYDFPRP,-0.138
6,RRIRYRPPRLPRPRPRPANWPRP,-0.0751
7,RRIRMRPPRLPRPRPRPAPHPRP,1.33
8,RRIRPRPPRLPRPRPRPIWCPRP,0.0267
9,RRIRTRPPRLPRPRPRPVCMPRP,-0.17
10,RRIRSRPPRLPRPRPRPQWVPRP,0.0964
11,RRIRQRPPRLPRPRPRPQPFPRP,-0.0492
12,RRIRGRPPRLPRPRPRPVIPPRP,0.000617
13,RRIRERPPRLPRPRPRPNLAPRP,-0.194
14,RRIRRRPPRLPRPRPRPTCDPRP,0.502
15,RRIRGRPPRLPRPRPRPEPDPRP,1.27
16,RRIRKRPPRLPRPRPRPFRVPRP,-0.035
17,RRIRVRPPRLPRPRPRPDTFPRP,-0.0845
18,RRIRKRPPRLPRPRPRPSGIPRP,0.149
19,RRIRVRPPRLPRPRPRPQLTPRP,-0.0141
20,RRIRIRPPRLPRPRPRPNNDPRP,-0.967
21,RRIRFRPPRLPRPRPRPSWLPRP,0.156
22,RRIRARPPRLPRPRPRPIWVPRP,0.226
23,RRIRSRPPRLPRPRPRPMCLPRP,0.038
24,RRIRYRPPRLPRPRPRPLTEPRP,-0.00518
25,RRIRSRPPRLPRPRPRPCIYPRP,-0.847

row,Sequence,shrunken log2 fold change
1,RRIRKRPPRLPRPRPRPQTFPRP,0.117
2,RRIRPRPPRLPRPRPRPPYHPRP,-0.226
3,RRIRQRPPRLPRPRPRPPFPPRP,0.243
4,RRIRARPPRLPRPRPRPYCDPRP,-0.425
5,RRIRYRPPRLPRPRPRPYSQPRP,-0.505
6,RRIRRRPPRLPRPRPRPANYPRP,-0.049
7,RRIRSRPPRLPRPRPRPNLPPRP,0.247
8,RRIRWRPPRLPRPRPRPWNDPRP,0.0222
9,RRIRHRPPRLPRPRPRPIFDPRP,-0.0378
10,RRIRKRPPRLPRPRPRPAHEPRP,0.816
11,RRIRPRPPRLPRPRPRPWDHPRP,-0.106
12,RRIRPRPPRLPRPRPRPDGFPRP,-0.0011
13,RRIRVRPPRLPRPRPRPLPIPRP,-0.398
14,RRIRDRPPRLPRPRPRPGWCPRP,0.201
15,RRIRRRPPRLPRPRPRPEPKPRP,1.46
16,RRIRPRPPRLPRPRPRPQCWPRP,0.0194
17,RRIRNRPPRLPRPRPRPQLCPRP,-0.00259
18,RRIRTRPPRLPRPRPRPSYDPRP,-0.495
19,RRIRTRPPRLPRPRPRPYCYPRP,-0.104
20,RRIRYRPPRLPRPRPRPIVEPRP,0.00721
21,RRIRKRPPRLPRPRPRPCQIPRP,0.0947
22,RRIRCRPPRLPRPRPRPTDLPRP,0.0853
23,RRIRDRPPRLPRPRPRPVELPRP,-0.0194
24,RRIRHRPPRLPRPRPRPNAQPRP,-0.00277
25,RRIRDRPPRLPRPRPRPRKTPRP,0.379

row,Sequence,shrunken log2 fold change
1,RRIRQRPPRLPRPRPRPTGFPRP,0.051
2,RRIRARPPRLPRPRPRPYYPPRP,-0.349
3,RRIRQRPPRLPRPRPRPFKSPRP,-0.00197
4,RRIRFRPPRLPRPRPRPSSSPRP,-0.625
5,RRIRWRPPRLPRPRPRPLFTPRP,-0.137
6,RRIRFRPPRLPRPRPRPADMPRP,-0.155
7,RRIRFRPPRLPRPRPRPYWPPRP,-0.336
8,RRIRHRPPRLPRPRPRPVIEPRP,-0.0264
9,RRIRPRPPRLPRPRPRPPTIPRP,-0.148
10,RRIRHRPPRLPRPRPRPATYPRP,-0.501
11,RRIRQRPPRLPRPRPRPVETPRP,-0.00674
12,RRIRNRPPRLPRPRPRPHCFPRP,-0.641
13,RRIRPRPPRLPRPRPRPACKPRP,0.0686
14,RRIRIRPPRLPRPRPRPRHFPRP,-0.00457
15,RRIRPRPPRLPRPRPRPYKIPRP,-0.227
16,RRIRTRPPRLPRPRPRPCYGPRP,-0.146
17,RRIRIRPPRLPRPRPRPYTPPRP,-0.825
18,RRIRRRPPRLPRPRPRPRDAPRP,0.736
19,RRIRGRPPRLPRPRPRPNEPPRP,0.154
20,RRIRWRPPRLPRPRPRPMHNPRP,-0.218
21,RRIRQRPPRLPRPRPRPIHTPRP,0.0773
22,RRIRARPPRLPRPRPRPSDGPRP,0.0321
23,RRIRIRPPRLPRPRPRPNQAPRP,-0.0486
24,RRIRYRPPRLPRPRPRPFVTPRP,-0.156
25,RRIRVRPPRLPRPRPRPSAMPRP,0.0604

row,Sequence,shrunken log2 fold change
1,RRIRHRPPRLPRPRPRPMFTPRP,-0.102
2,RRIRKRPPRLPRPRPRPQNCPRP,-0.132
3,RRIRSRPPRLPRPRPRPTDAPRP,0.236
4,RRIRMRPPRLPRPRPRPYTPPRP,-0.847
5,RRIRPRPPRLPRPRPRPHCLPRP,-0.374
6,RRIRVRPPRLPRPRPRPVLDPRP,-0.145
7,RRIRDRPPRLPRPRPRPKVMPRP,-0.054
8,RRIRCRPPRLPRPRPRPPLEPRP,0.186
9,RRIRTRPPRLPRPRPRPRCSPRP,-0.262
10,RRIRWRPPRLPRPRPRPSQFPRP,-0.196
11,RRIRTRPPRLPRPRPRPTPFPRP,0.356
12,RRIRPRPPRLPRPRPRPLRVPRP,0.615
13,RRIRERPPRLPRPRPRPIDHPRP,-0.379
14,RRIRLRPPRLPRPRPRPTLIPRP,-0.407
15,RRIRSRPPRLPRPRPRPACAPRP,0.482
16,RRIRARPPRLPRPRPRPGSWPRP,0.759
17,RRIRRRPPRLPRPRPRPLPKPRP,0.634
18,RRIRDRPPRLPRPRPRPKFMPRP,-0.191
19,RRIRCRPPRLPRPRPRPNCDPRP,-0.233
20,RRIRGRPPRLPRPRPRPADSPRP,0.283
21,RRIRGRPPRLPRPRPRPLVIPRP,0.187
22,RRIRQRPPRLPRPRPRPIIYPRP,-0.858
23,RRIRHRPPRLPRPRPRPHKLPRP,-0.279
24,RRIRQRPPRLPRPRPRPRNYPRP,0.034
25,RRIRWRPPRLPRPRPRPTLFPRP,0.0961
